From patent US20250313646A1 (AUGMENT BIOLOGICS, published 2025)

Columns and labels:
[1] = molecular target: T1, full-length, biotinylated, human CD20 (Acro Biosystems) (human, UniProt P11836 1-297, biotinylated (site not stated)); test: BLI (Octet RED96e), biotinylated CD20 on biosensor, antibody at 100 nM
T1 construct: mature; No construct limits or tags are stated for the bought reagent; also called CD20 antigen
T1 sequence (looked up): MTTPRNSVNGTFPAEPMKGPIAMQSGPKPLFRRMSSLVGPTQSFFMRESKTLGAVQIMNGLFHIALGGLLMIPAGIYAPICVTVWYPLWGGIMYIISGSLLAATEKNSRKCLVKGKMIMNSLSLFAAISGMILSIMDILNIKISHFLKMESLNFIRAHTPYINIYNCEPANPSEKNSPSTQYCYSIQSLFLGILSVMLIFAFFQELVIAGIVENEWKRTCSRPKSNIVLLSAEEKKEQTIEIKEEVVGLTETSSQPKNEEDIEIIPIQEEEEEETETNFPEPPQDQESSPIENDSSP

[2] = molecular target: T1, full-length, biotinylated, human CD20 …; test: BLI (Octet RED96e), biotinylated CD20 on biosensor, antibody at 50 nM
[3] = molecular target: T1, full-length, biotinylated, human CD20 …; test: BLI (Octet RED96e), biotinylated CD20 on biosensor, antibody at 25 nM

B1: wildtype Rituximab (antibody)
chain 1: not shown
chain 2: QIVLSQSPAILSASPGEKVTMTCRASSSVSYIHWFQQKPGSSPKPWIYATSNLASGVPVRFSGSGSGTSYSLTISRVEAEDAATYYCQQWTSNPPTFGGGTKLEIKRTVAAPSVFIFPPSDEQLKSGTASVVCLLNNFYPREAKVQWKVDNALQSGNSQESVTEQDSKDSTYSLSSTLTLSKADYEKHKVYACEVTHQGLSSPVTKSFNRGEC
[1]
  Kd: 0.169 nM
[2]
  Kd: 0.169 nM
[3]
  Kd: 0.171 nM
